This is an account of results in US20250295734A1, “ANTICOAGULANT PROTEINS AND THEIR USE FOR TREATING DISEASES ASSOCIATED WITH THE ACTIVATION OF NEUTROPHILS” (BIOXODES, priority 2018, published 2025).

The test system of series [1] is thrombin generation induced by ellagic acid (intrinsic pathway activator). The settings on record: cited from earlier work.
A further series has as its system human neutrophils. Description: Apoptosis/necrosis assay (Annexin V / Propidium Iodide). It is filed as cell-based. The settings on record: recombinant Ir-CPI 15.3 μg/mL (2 μM); 1 h incubation; 4 donors. Here is the method:
The effect of recombinant Ir-CPI on apoptosis/necrosis of human neutrophils was assessed. For this purpose, freshly isolated neutrophils from 4 donors were pre-treated for 1 h with recombinant Ir-CPI at 15.3 μg/mL and then incubated with Annexin V-FITC, with Propidium Iodide (PI) and with anti-human CD66b-PE antibody for cell identification. As negative control, neutrophils were only incubated with Annexin V-PI and CD66b for cell identification.
Polymorphonuclear neutrophils (PMNs) were isolated with StraightFrom® Whole Blood CD15 MicroBeads kits from Miltenyi Biotech. Briefly, after erythrocytes lysis, the blood cells were incubated in the presence of CD15 microbeads. Blood cells were washed with separation buffer and centrifuged at 300 g for 10 min at room temperature. The pellets containing magnetically labeled cells were resuspended in separation buffer and applied to the equilibrated whole blood column placed on the QuadroMACS. After extensive washing, the column was removed from the magnetic separator, and labeled cells were eluted using whole blood elution buffer. Finally, the PMNs were centrifuged at 300 g for 10 min and resuspended in Hank's buffer with calcium and magnesium. […]
Apoptosis was detected by initially staining the cells with Annexin V and Propidium Iodide solution followed by flow cytometry analysis. […]

Another series addresses Factor XIa (Homo sapiens, UniProt P03951). The settings on record: cited from earlier work.
Series [2] can be described thus: Dissolution in NaCl 0.9% (solubility limit). It is filed as physicochemical. The protocol:
Ir-CPI was freshly prepared on the testing day by dissolution in NaCl 0.9% to reach the concentration of 50 mg/mL (corresponding to the maximal concentration to reach to avoid solubility issues).

Another series has as its target plasminogen (Homo sapiens, UniProt P00747). The settings on record: cited from earlier work.

plasminogen, sequence (P00747 20-810 limits assumed, species assumed): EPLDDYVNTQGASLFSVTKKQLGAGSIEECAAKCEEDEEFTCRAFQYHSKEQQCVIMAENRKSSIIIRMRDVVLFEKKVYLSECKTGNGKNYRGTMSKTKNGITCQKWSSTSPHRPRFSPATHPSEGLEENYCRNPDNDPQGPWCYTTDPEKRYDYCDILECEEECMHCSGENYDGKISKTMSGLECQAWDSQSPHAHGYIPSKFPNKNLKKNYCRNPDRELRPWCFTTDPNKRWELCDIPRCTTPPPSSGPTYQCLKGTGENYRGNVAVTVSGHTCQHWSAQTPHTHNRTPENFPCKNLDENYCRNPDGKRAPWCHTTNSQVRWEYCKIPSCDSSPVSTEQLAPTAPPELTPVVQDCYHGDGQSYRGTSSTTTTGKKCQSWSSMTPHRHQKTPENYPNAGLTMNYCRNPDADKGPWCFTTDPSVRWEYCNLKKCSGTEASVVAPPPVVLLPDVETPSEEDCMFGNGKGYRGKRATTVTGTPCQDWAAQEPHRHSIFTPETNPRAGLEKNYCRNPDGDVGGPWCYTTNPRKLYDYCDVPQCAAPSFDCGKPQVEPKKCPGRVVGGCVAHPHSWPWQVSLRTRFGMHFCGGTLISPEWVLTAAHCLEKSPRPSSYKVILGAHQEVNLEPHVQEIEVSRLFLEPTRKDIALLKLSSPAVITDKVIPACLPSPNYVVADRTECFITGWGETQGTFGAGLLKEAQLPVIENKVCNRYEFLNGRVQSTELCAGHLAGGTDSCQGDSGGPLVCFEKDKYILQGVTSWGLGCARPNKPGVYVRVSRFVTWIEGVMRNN
Factor XIa, sequence (P03951 19-387 limits assumed): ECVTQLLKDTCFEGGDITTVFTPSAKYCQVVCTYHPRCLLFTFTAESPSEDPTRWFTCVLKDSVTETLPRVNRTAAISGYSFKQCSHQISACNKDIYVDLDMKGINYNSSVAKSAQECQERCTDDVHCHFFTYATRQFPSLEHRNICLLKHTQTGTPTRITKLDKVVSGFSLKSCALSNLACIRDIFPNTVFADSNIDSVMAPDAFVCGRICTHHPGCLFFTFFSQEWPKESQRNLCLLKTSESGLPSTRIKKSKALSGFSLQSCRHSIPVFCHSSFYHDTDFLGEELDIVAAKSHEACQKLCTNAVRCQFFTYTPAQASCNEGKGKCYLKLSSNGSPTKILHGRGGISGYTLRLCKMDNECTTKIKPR
Factor XIa, sequence (P03951 388-625 limits assumed): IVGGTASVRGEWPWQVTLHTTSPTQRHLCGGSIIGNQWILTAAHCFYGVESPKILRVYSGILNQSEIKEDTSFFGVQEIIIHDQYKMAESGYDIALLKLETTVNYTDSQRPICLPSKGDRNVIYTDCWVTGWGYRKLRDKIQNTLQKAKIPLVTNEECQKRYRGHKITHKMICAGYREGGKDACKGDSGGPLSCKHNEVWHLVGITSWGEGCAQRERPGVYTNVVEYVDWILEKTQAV

B1: Ir-CPI: Ixodes ricinus salivary gland polypeptide, contact phase inhibitor, MW=7660 Da; sequence SEQ ID NO: 1 or SEQ ID NO: 2 (protein)
chain: ANHKGRGRPAKCKLPPDDGPCRARIPSYYFDRKTKTCKEFMYGGCEGNENNFENITTCQEECRAKKV
With B1, the thrombin generation result in series [1] is “strong dose-dependent reduction”. Further, in the series on human neutrophils, the induction of apoptosis entry is reported as “did not induce apoptosis”; the “mean necrotic, dead, apoptotic, and live cells vs negative control” value is listed as “no statistical difference”. Besides, in the series with Factor XIa, the “activation of Factor XII by Factor XIa” value was “inhibit activation”. In addition, in series [2], the “maximal concentration to reach to avoid solubility issues” value was found to be 50 mg/mL. The binding to plasminogen result with plasminogen was “unable to bind”.
